Reference: patent publication US20150204859, “MULTIPLEXED MICROCOLUMN DEVICES AND PROCESSES FOR SELECTION OF NUCLEIC ACID APTAMERS” (CORNELL UNIVERSITY, published 2015)

Columns and labels:
GFP = GFP (UniProt P42212); details: RNA transcript; printed sequence is the DNA template strand (RNA is its reverse complement); microcolumn qPCR recovery fit by simulation; non-specific background binding
hHSF2 [1] = target: T1, hHSF2 (Homo sapiens, UniProt Q03933 Q03933:1-536); assay: EMSA; confirmed by FP (FIG. 22B); exact value only in figure; details: tags: N-terminal GST; E. coli BL21(DE3)-RIPL; label: 3'-fluorescein (5-thiosemicarbazide)
T1 sequence (Q03933 whole entry, one chain of several): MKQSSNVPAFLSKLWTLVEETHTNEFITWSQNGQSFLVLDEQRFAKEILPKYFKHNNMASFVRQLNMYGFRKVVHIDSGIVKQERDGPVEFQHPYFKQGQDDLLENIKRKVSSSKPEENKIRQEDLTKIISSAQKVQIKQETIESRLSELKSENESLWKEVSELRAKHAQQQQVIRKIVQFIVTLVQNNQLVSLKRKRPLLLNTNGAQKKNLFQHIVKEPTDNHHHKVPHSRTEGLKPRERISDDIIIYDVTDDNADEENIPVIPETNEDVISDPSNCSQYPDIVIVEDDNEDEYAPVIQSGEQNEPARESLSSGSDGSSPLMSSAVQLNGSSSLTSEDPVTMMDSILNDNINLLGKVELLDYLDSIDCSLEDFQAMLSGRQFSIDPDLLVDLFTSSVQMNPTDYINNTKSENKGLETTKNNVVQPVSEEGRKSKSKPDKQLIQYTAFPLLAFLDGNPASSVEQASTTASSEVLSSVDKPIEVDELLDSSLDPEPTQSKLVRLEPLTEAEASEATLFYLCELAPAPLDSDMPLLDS
Procedure: (§1) The candidate aptamers were 3′-end labeled with fluorescein 5-thiosemicarbazide (Invitrogen) as described previously (Ref. 16). 50 μL binding reactions were prepared with 2 nM fluorescently-labeled RNA and decreasing amounts of protein (2000 to 0 nM) in binding buffer containing 0.01% IGEPAL CA630, 10 μg/ml tRNA, and 3U of SUPERase•In RNase Inhibitor (Invitrogen). […] The gel was run for 80 minutes at 100 volts in refrigerated 0.5×TBE. Images were acquired using the fluorescein scan settings on a Typhoon 9400 imager (GE Healthcare Life Sciences). The resulting bands were quantified with ImageQuant software and the data was fit to the Hill equation using Igor (Wavemetrics) to estimate the equilibrium dissociation constant (KD).
(§2) The putative RNA aptamers were fluorescently end-labeled and then tested for binding to their hHSF targets using F-EMSA and FP assays (Ref. 16). An image of a typical F-EMSA result is shown in FIG. 17A for hHSF1-R5-1 aptamer binding to hHSF1 protein. […] The F-EMSA results were confirmed by the FP assays (FIGS. 22 and 23). Thus, the observed binding is not due to the affinity tags on the protein targets but rather specific domains of the targets themselves.

GST tag [2] = target: T2, GST tag (UniProt P08515 P08515:1-218); assay: EMSA; no binding to GST tag alone; FP FIG. 22D; details: tags: GST tag alone, ~30 kDa; label: 3'-fluorescein (5-thiosemicarbazide)
T2 sequence (P08515 whole entry, one chain of several): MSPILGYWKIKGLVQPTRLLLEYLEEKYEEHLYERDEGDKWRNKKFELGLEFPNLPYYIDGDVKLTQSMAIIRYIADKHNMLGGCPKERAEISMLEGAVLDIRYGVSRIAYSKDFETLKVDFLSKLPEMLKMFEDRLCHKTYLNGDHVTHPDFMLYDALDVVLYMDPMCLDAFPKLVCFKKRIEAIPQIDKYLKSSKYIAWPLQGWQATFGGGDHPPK
Procedure: as §1, §2

hHSF1 [3] = target: T3, hHSF1 (Homo sapiens, UniProt Q00613 Q00613:1-529); assay: EMSA; room temperature 2 h, 10 ug/ml tRNA; confirmed by FP (FIG. 22A); exact value only in figure; details: tags: N-terminal GST; E. coli BL21(DE3)-RIPL; label: 3'-fluorescein (5-thiosemicarbazide)
T3 sequence (Q00613 whole entry, one chain of several): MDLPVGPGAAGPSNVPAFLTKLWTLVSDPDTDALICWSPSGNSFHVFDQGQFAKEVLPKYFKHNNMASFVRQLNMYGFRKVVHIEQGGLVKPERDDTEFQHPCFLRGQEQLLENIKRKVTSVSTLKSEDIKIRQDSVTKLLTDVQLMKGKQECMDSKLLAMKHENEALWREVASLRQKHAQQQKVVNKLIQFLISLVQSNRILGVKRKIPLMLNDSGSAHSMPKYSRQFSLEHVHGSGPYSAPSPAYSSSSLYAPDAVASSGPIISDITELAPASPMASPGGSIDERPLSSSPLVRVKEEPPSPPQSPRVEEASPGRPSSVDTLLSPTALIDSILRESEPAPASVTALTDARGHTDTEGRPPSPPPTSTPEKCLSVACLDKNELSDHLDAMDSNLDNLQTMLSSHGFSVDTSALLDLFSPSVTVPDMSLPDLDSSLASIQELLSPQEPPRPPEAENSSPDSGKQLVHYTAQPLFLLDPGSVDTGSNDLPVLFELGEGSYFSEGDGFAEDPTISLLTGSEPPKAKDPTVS
Procedure: as §1, §2

hHSF1 [4] = target: T3, hHSF1; assay: EMSA; confirmed by FP (FIG. 23A); exact value only in figure; details: tags: N-terminal GST; E. coli BL21(DE3)-RIPL; label: 3'-fluorescein (5-thiosemicarbazide)
Procedure: as §1, §2

GST tag [5] = target: T2, GST tag; assay: EMSA; no binding to GST tag alone; FP FIG. 23D; details: tags: GST tag alone, ~30 kDa; label: 3'-fluorescein (5-thiosemicarbazide)
Procedure: as §1, §2

hHSF2 [6] = target: T1, hHSF2; assay: EMSA; room temperature 2 h, 10 ug/ml tRNA; confirmed by FP (FIG. 23B); exact value only in figure; details: tags: N-terminal GST; E. coli BL21(DE3)-RIPL; label: 3'-fluorescein (5-thiosemicarbazide)
Procedure: as §1, §2

AAGCUUCGUCAAGUCUGCAGUGAANNNNNNNNNNNNNNNNNNNNNNNNNNNNNNNNNNNNNNNNNNNNNNNNNNNNNNNNNNNNNNNNNNNNNNGAAUUCGUAGAUGUGGAUCCAUUCCC [N70 random RNA library]
Kd (GFP): > 10 µM

B1: hHSF1-R5-1 (ssRNA)
RNA: GGGAAUGGAUCCACAUCUACGAAUUCAAUCAAGUCCCCAGACUCAGCAACACUGGACAGCGAUAUGCAGAUAACCAAGACCAAUUCACUCCAGUUCACUGCAGACUUGACGAAGCUU
Kd (hHSF2 [1]): < 20 nM | binding result (GST tag [2]): no binding | Kd (hHSF1 [3]): < 20 nM

B2: hHSF2-R5-2 (ssRNA)
RNA: GGGAAUGGAUCCACAUCUACGAAUUCAAUCAAGUCCCCAGACUCAGCAACACUGGACAGCGAUAUGCAGAUAACCAAGACCAAUUCACUCCAGUUCACUGCAGACUUGACGAAGCUU
Kd (hHSF1 [4]): < 20 nM | binding result (GST tag [5]): no binding | Kd (hHSF2 [6]): < 20 nM
